# Results reported in article PMC4776142, “Comparative evaluation of p5+14 with SAP and peptide p5 by dual-energy SPECT imaging of mice with AA amyloidosis” (Scientific Reports, 2016).
# How the values were obtained:
# [1] = molecular target: T1, AA amyloid in H2/IL-6 mice (Mus musculus, UniProt P05367); experiment: Dual-energy tissue biodistribution of 125I-SAP and 99mTc-p5+14 in AA mice; format: in vivo
# T1 construct: Systemic distribution of AA amyloid in H2/IL-6 mice; from tissue; host or cells: organs of living H2/IL-6 Balb/c mice after induction with amyloid enhancing factor
# T1 sequence (P05367 20-94 limits assumed): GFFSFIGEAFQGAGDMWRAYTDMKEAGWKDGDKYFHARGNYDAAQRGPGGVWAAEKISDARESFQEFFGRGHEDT
# Procedure: Transgenic H2-L^d-huIL-6 Balb/c mice (H2/IL-6) constitutively express the human IL-6 transgene leading to chronic, severe inflammation and the overproduction of acute phase reactants, such as serum amyloid protein A, the precursor protein of systemic, inflammation-associated (AA) amyloidosis. Amyloid deposition was induced in 8–wk old female mice by IV injection of 100 μg of amyloid enhancing factor (AEF – an insoluble preparation of amyloid fibrils isolated from the spleen of mice with AA amyloidosis) suspended in sterile phosphate buffered saline (PBS)[34]. All animal procedures were performed in accordance with protocols approved by the University of Tennessee Animal Care and Use Committee. The University of Tennessee is an Association for Assessment and Accreditation of Laboratory Animal Care International (AAALAC-I) accredited institution.
# (§1) Dual-energy comparative uptake experiments were performed in individual AA mice (5 wk post amyloid induction with AEF) and wild type mice (n = 5 per group). All SPECT/CT imaging was performed using an Inveon trimodality SPECT/PET/CT platform[37] (Siemens preclinical, Knoxville, TN). Image data were acquired and reconstructed using Inveon Acquisition Workplace (IAW) ver. 2.0.
# For the comparison of ^125I-SAP and ^99mTc-p5+14, mice were administered ^125I-SAP (45 μCi, 8 μg) and 20 h thereafter received ^99mTc-p5+14 (110 μCi, 5 μg). Mice were euthanised 4 h after injection of the ^99mTc-p5+14. The image data for the low and high energy radionuclides were obtained sequentially by acquiring 60, 16-second projections in a total of 1.5 revolutions. A 1 mm-diameter aperture, five-pinhole (mouse whole body) collimator was used at 30 mm from the centre of the field of view. The image data in the appropriate energy window were reconstructed using a Maximum A Priori algorithm (MAP - 16 iterations, 6 subsets, β = 1) onto a matrix with x and y dimensions of 88 and z dimension of 312 and 0.5-mm isotropic voxels. Post hoc attenuation correction was then applied to reconstructed data using CT image data. Scatter correction was performed using a SPECT triple energy window (TEW) method.
# (§2) For comparison of the p5+14 and p5 peptides, mice were injected IV in the lateral tail vein with a mixture of ^125I-p5+14 (150 μCi, ~3 μg) and ^99mTc-p5 (300 μCi, ~8 μg) and the mice euthanised by an overdose of isoflurane anaesthetic 1 h post injection. Tissues were harvested at necropsy for biodistribution measurements. Organs were also harvested from mice injected with ^125I-SAP and ^99mTc-p5+14 after SPECT/CT imaging. A small volume of tissue from each mouse was placed into a tared plastic vial and weighed. The radioactivity in the low and high energy windows (^125I and ^99mTc, respectively) was measured using an automated Wizard 3 gamma counter (1480 Wallac Gamma Counter, Perkin Elmer) with a crossover correction from the high to low energy channel of 4.6%, applied manually. Biodistribution data were expressed as percent injected dose per gram (%ID/g) of tissue.
# Skewness and kurtosis statistics were used to assess the statistical assumption of normality for between-subjects comparisons and correlations. Any skewness or kurtosis statistic above an absolute value of 2.0 assumed a non-normal distribution. The assumption of homogeneity of variance was tested with Levene’s Test of Equality of Variances. Independent samples t-tests were used to compare p5+14 and SAP retention in amyloid laden organs (liver, spleen, pancreas, intestines and heart). Means and standard deviations were reported for the analyses. If a statistical assumption was violated, a non-parametric Mann-Whitney U test was used. Medians and interquartile ranges (IQR) were reported for non-parametric statistics. Pearson correlations were run to compare tissue biodistribution data (%ID/g) in all organs. […]
# [2] = system: amyloid-free organs of WT mice; experiment: Dual-energy tissue biodistribution in amyloid-free WT mice; format: in vivo, mouse; conditions: n = 5, SAP 24 h and p5+14 4 h post injection
# Procedure: as §1
# For the comparison of ^125I-SAP and ^99mTc-p5+14, mice were administered ^125I-SAP (45 μCi, 8 μg) and 20 h thereafter received ^99mTc-p5+14 (110 μCi, 5 μg). Mice were euthanised 4 h after injection of the ^99mTc-p5+14. The image data for the low and high energy radionuclides were obtained sequentially by acquiring 60, 16-second projections in a total of 1.5 revolutions. […]
# as §2, with “Tissues were harvested at necropsy for biodistribution measurements. Organs were also harvested from mice injected with ^125I-SAP and ^99mTc-p5+14 after SPECT/CT imaging. A small volume of tissue from each mouse was placed into a tared plastic vial and weighed.” left out
# [3] = AA mice 5 wk post-AEF, n = 5, 125I-SAP 45 μCi, 8 μg, 24 h post injection, crossover-corrected
substance,measurement,setting,value
125I-SAP: purified human SAP radioiodinated with 125I,"Tissue biodistribution, heart, Mean ± SD",[1]; [3],0.7 ± 0.1 %ID/g
same,"Tissue biodistribution, intestine, Mean ± SD",[1]; [3],0.8 ± 1.1 %ID/g
same,"Tissue biodistribution, liver, Mean ± SD",[1]; [3],14.1 ± 3.5 %ID/g
same,"Tissue biodistribution, pancreas, Median (Interquartile range)",[1]; [3],0.7 (0.5)[3] %ID/g
same,"Tissue biodistribution, spleen, Mean ± SD",[1]; [3],23.8 ± 3.5 %ID/g
same,Uptake in the spleen as compared to 99mTc-p5+14,"[1]; AA mice, in each mouse studied, p < 0.001",~ 4 fold
same,Uptake by pancreatic AA amyloid,"[1]; AA mice, 125I-SAP, 24 h post injection",< 1 %ID/g
same,Retention in amyloid-free organs,[2],no retention
